Paper PMC8591229
Bridge positions count the residues as written; N and C are the ends. Ends that are not written are not given here.

Target: T1, human islet amyloid polypeptide (IAPP) (human) (not fully specified)
T1 chain: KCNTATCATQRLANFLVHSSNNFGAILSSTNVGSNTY
Assay: seeded thioflavin T fluorescence aggregation kinetics; 5 uM monomeric IAPP with preformed IAPP fibril seeds at 0 to 33% (monomer equivalents), 33 mM acetate, 150 mM KCl, pH 5.3, 37 C, quiescent; elongation (monomer added to fibril ends) from the initial gradient at 33% seeds and the fibril length by cryo-TEM
Conditions: remark: other sources report otherwise

elongation rate constant k+: 500000 M⁻¹ s⁻¹
Binder: KCNTATCATQRLANFLVHSSNNFGAILSSTNVGSNTY-NH2 (disulfide 2-7 (inferred); not fully specified) [human islet amyloid polypeptide (IAPP)]
